Measurements: patent EP4729546A1 (Jiangsu BioJeTay Biotechnology Co., Ltd., dated 2026)

Tests used:
[1] = target: huFXII-his (human) (UniProt P00748); assay: ELISA, huFXII-his coated at 1 µg/ml, HRP anti-human secondary, OD450
[2] = target: huFXII-his (human) (UniProt P00748); assay: cell-based or functional assay
[3] = target: T1, huFXII-his (human, UniProt P00748 20-615); assay: cell-based or functional assay
T1 sequence (looked up): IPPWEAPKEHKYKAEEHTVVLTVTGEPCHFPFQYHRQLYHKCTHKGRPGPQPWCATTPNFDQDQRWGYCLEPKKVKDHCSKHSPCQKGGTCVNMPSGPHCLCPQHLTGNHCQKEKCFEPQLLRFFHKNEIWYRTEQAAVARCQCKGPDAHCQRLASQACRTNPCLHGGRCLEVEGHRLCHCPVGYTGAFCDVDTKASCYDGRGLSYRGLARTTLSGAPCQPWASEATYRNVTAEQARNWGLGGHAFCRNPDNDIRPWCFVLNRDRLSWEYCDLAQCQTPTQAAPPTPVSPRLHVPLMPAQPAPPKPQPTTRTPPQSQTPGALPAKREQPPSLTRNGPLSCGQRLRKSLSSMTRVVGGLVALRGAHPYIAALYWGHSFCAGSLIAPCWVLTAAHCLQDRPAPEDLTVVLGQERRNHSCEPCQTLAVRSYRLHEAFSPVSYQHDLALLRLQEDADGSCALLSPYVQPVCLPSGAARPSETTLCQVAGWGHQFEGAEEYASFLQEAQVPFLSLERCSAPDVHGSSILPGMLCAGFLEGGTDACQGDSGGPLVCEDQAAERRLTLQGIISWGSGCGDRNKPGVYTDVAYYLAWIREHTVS

| EC50 [1] | IC50 of inhibition of cleavage of chemical substrate S2302 by FXIIa (OD405) [2] | IC50 of inhibition of cleavage of chemical substrate S2302 by FXIIa (OD405) [3] | Binder |
| --- | --- | --- | --- |
| 0.127 µg/mL | 0.0187 µg/mL | – | FX-Y17-Y20 (antibody, V domains shown) VH: EVQLLESGGGLVQPGGSLRLSCAGSGFSFGSQTMSWVRQAPGKGLEWVSSISVISGRSYYADSVKGRFTISRDNSKNTLYLQMNSLRAEDTAVYYCTKSHAFDVWGQGTMVTVSS VL: EIVLTQSPATLSVSPGERATLSCRASQSVYSALAWYQQKPGQAPRLLIYGASTRATGIPARFSGSGSGTEFTLTISSLQSEDFAVYYCQQYHKWPLSFGGGTKVEIK |
| – | – | 0.0225 µg/mL | FX-Y17-Y50 (antibody, V domains shown) VH: EVQLLESGGGLVQPGGSLRLSCAGSGFSFGSQTMSWVRQAPGKGLEWVSSISVISGRRYYADSVKGRFTISRDNSKNTLYLQMNSLRAEDTAVYYCTKSHAFDVWGQGTMVTVSS VL: EIVLTQSPATLSVSPGERATLSCRASQSVYSALAWYQQKPGQAPRLLIYGASTRATGIPARFSGSGSGTEFTLTISSLQSEDFAVYYCQQYHKWPLSFGGGTKVEIK |
| 0.187 µg/mL | 0.0202 µg/mL | – | FX-Y17-Y22 (antibody, V domains shown) VH: EVQLLESGGGLVQPGGSLRLSCAGSGFSFGSQTMSWVRQAPGKGLEWVSSISYISGRTYYADSVKGRFTISRDNSKNTLYLQMNSLRAEDTAVYYCTRSHAFDVWGQGTMVTVSS VL: EIVLTQSPATLSVSPGERATLSCRASQSVWSNLAWYQQKPGQAPRLLIYGASTRATGIPARFSGSGSGTEFTLTISSLQSEDFAVYYCQQYHKWPLSFGGGTKVEIK |
| – | – | 0.0422 µg/mL | FX-Y17-Y39 (antibody, V domains shown) VH: EVQLLESGGGLVQPGGSLRLSCAGSGFSFGSQTMSWVRQAPGKGLEWVSSISHISGRTYYADSVKGRFTISRDNSKNTLYLQMNSLRAEDTAVYYCTKSHDFDVWGQGTMVTVSS VL: EIVLTQSPATLSVSPGERATLSCRASQSVYSALAWYQQKPGQAPRLLIYGASTRATGIPARFSGSGSGTEFTLTISSLQSEDFAVYYCQQNNKWPLSFGGGTKVEIK |
| – | – | 0.0177 µg/mL | FX-Y17-Y42 (antibody, V domains shown) VH: EVQLLESGGGLVQPGGSLRLSCAGSGFSLGSQTMSWVRQAPGKGLEWVSSISVISGRMYYADSVKGRFTISRDNSKNTLYLQMNSLRAEDTAVYYCTKSHAFDVWGQGTMVTVSS VL: EIVLTQSPATLSVSPGERATLSCRASQSVYSALAWYQQKPGQAPRLLIYGASTRATGIPARFSGSGSGTEFTLTISSLQSEDFAVYYCQQYHKWPLSFGGGTKVEIK |
| – | – | 0.016 µg/mL | FX-Y17-Y38 (antibody, V domains shown) VH: EVQLLESGGGLVQPGGSLRLSCAGSGFSFGSQTMSWVRQAPGKGLEWVSSISVISRRTYYADSVKGRFTISRDNSKNTLYLQMNSLRAEDTAVYYCAKSHAFDVWGQGTMVTVSS VL: EIVLTQSPATLSVSPGERATLSCRASQSVYSALAWYQQKPGQAPRLLIYGASTRATGIPARFSGSGSGTEFTLTISSLQSEDFAVYYCQQYHKWPLSFGGGTKVEIK |
| – | – | 0.0141 µg/mL | FX-Y17-Y48 (antibody, V domains shown) VH: EVQLLESGGGLVQPGGSLRLSCAGSGFSFGSQTMSWVRQAPGKGLEWVSSISVISGRAYYADSVKGRFTISRDNSKNTLYLQMNSLRAEDTAVYYCTRSHAFDVWGQGTMVTVSS VL: EIVLTQSPATLSVSPGERATLSCRASQSVYSALAWYQQKPGQAPRLLIYGASTRATGIPARFSGSGSGTEFTLTISSLQSEDFAVYYCQQYHKWPLSFGGGTKVEIK |
| – | – | 0.0157 µg/mL | FX-Y17-Y6 (antibody, V domains shown) VH: EVQLLESGGGLVQPGGSLRLSCAGSGFSFGSQTMSWVRQAPGKGLEWVSSISYISGRTYYADSVKGRFTISRDNSKNTLYLQMNSLRAEDTAVYYCTKSHAFDVWGQGTMVTVSS VL: EIVLTQSPATLSVSPGERATLSCRASQSVYSALAWYQQKPGQAPRLLIYGASTRATGIPARFSGSGSGTEFTLTISSLQSEDFAVYYCQQYHKWPLSFGGGTKVEIK |
| 0.151 µg/mL | 0.0237 µg/mL | – | FX-Y17-Y1 (antibody, V domains shown) VH: EVQLLESGGGLVQPGGSLRLSCAGSGFSFGSQTMSWVRQAPGKGLEWVSSISVISRRTYYADSVKGRFTISRDNSKNTLYLQMNSLRAEDTAVYYCTKSHAFDVWGQGTMVTVSS VL: EIVLTQSPATLSVSPGERATLSCRASQSVYSALAWYQQKPGQAPRLLIYGASTRATGIPARFSGSGSGTEFTLTISSLQSEDFAVYYCQQYHKWPLSFGGGTKVEIK |
| – | – | 0.0155 µg/mL | FX-Y17-Y36 (antibody, V domains shown) VH: EVQLLESGGGLVQPGGSLRLSCAGSGFSFGSQTMSWVRQAPGKGLEWVSSISVISKRTYYADSVKGRFTISRDNSKNTLYLQMNSLRAEDTAVYYCTKSHAFDVWGQGTMVTVSS VL: EIVLTQSPATLSVSPGERATLSCRASQSVYSALAWYQQKPGQAPRLLIYGASTRATGIPARFSGSGSGTEFTLTISSLQSEDFAVYYCQQYHKWPLSFGGGTKVEIK |
| – | – | 0.0267 µg/mL | FX-Y17-Y28 (antibody, V domains shown) VH: EVQLLESGGGLVQPGGSLRLSCAGSGFSFGSQTMSWVRQAPGKGLEWVSSISVISGRTYYADSVKGRFTISRDNSKNTLYLQMNSLRAEDTAVYYCTKQHAFDVWGQGTMVTVSS VL: EIVLTQSPATLSVSPGERATLSCRASQSVYSALAWYQQKPGQAPRLLIYGASTRATGIPARFSGSGSGTEFTLTISSLQSEDFAVYYCQQYHKWPLSFGGGTKVEIK |
| 0.101 µg/mL | 0.0132 µg/mL | – | FX-Y17-Y21 (antibody, V domains shown) VH: EVQLLESGGGLVQPGGSLRLSCAGSGFSFGSQTMSWVRQAPGKGLEWVSSISHISGRTYYADSVKGRFTISRDNSKNTLYLQMNSLRAEDTAVYYCAKSHAFDVWGQGTMVTVSS VL: EIVLTQSPATLSVSPGERATLSCRASQSVYSALAWYQQKPGQAPRLLIYGASTRATGIPARFSGSGSGTEFTLTISSLQSEDFAVYYCQQNNKWPLSFGGGTKVEIK |
| 0.0942 µg/mL | 0.0129 µg/mL | – | FX-Y17-Y23 (antibody, V domains shown) VH: EVQLLESGGGLVQPGGSLRLSCAGSGFSFGSQTMSWVRQAPGKGLEWVSSISVISGRSYYADSVKGRFTISRDNSKNTLYLQMNSLRAEDTAVYYCTRSHAFDVWGQGTMVTVSS VL: EIVLTQSPATLSVSPGERATLSCRASQSVWSNLAWYQQKPGQAPRLLIYGASTRATGIPARFSGSGSGTEFTLTISSLQSEDFAVYYCQQYHKWPLSFGGGTKVEIK |
| – | – | 0.0155 µg/mL | FX-Y17-Y51 (antibody, V domains shown) VH: EVQLLESGGGLVQPGGSLRLSCAGSGFSFGSQTMSWVRQAPGKGLEWVSSISVISGRNYYADSVKGRFTISRDNSKNTLYLQMNSLRAEDTAVYYCTRSHAFDVWGQGTMVTVSS VL: EIVLTQSPATLSVSPGERATLSCRASQSVYSALAWYQQKPGQAPRLLIYGASTRATGIPARFSGSGSGTEFTLTISSLQSEDFAVYYCQQYHKWPLSFGGGTKVEIK |
| – | – | 0.0146 µg/mL | FX-Y17-Y43 (antibody, V domains shown) VH: EVQLLESGGGLVQPGGSLRLSCAGSGFSFGSQTMSWVRQAPGKGLEWVSSSSVISGRTYYADSVKGRFTISRDNSKNTLYLQMNSLRAEDTAVYYCTRSHAFDVWGQGTMVTVSS VL: EIVLTQSPATLSVSPGERATLSCRASQSVYSALAWYQQKPGQAPRLLIYGASTRATGIPARFSGSGSGTEFTLTISSLQSEDFAVYYCQQYHKWPLSFGGGTKVEIK |
| – | – | 0.019 µg/mL | FX-Y17-Y41 (antibody, V domains shown) VH: EVQLLESGGGLVQPGGSLRLSCAGSGFSFGSQTMSWVRQAPGKGLEWVSSISVISGRRYYADSVKGRFTISRDNSKNTLYLQMNSLRAEDTAVYYCAKSHAFDVWGQGTMVTVSS VL: EIVLTQSPATLSVSPGERATLSCRASQSVYSALAWYQQKPGQAPRLLIYGASTRATGIPARFSGSGSGTEFTLTISSLQSEDFAVYYCQQYHKWPLSFGGGTKVEIK |
| – | – | 0.022 µg/mL | FX-Y17-Y33 (antibody, V domains shown) VH: EVQLLESGGGLVQPGGSLRLSCAGSGFSFGSQTMSWVRQAPGKGLEWVSSISVISGRKYYADSVKGRFTISRDNSKNTLYLQMNSLRAEDTAVYYCTKSHAFDVWGQGTMVTVSS VL: EIVLTQSPATLSVSPGERATLSCRASQSVYSALAWYQQKPGQAPRLLIYGASTRATGIPARFSGSGSGTEFTLTISSLQSEDFAVYYCQQYHKWPLSFGGGTKVEIK |
| – | – | 0.0139 µg/mL | FX-Y17-Y35 (antibody, V domains shown) VH: EVQLLESGGGLVQPGGSLRLSCAGSGFSFGSQTMSWVRQAPGKGLEWVSSISVISGRDYYADSVKGRFTISRDNSKNTLYLQMNSLRAEDTAVYYCAKSHAFDVWGQGTMVTVSS VL: EIVLTQSPATLSVSPGERATLSCRASQSVYSALAWYQQKPGQAPRLLIYGASTRATGIPARFSGSGSGTEFTLTISSLQSEDFAVYYCQQYHKWPLSFGGGTKVEIK |
| – | – | 0.0179 µg/mL | FX-Y17-Y47 (antibody, V domains shown) VH: EVQLLESGGGLVQPGGSLRLSCAGSGFSFGSQTMSWVRQAPGKGLEWVSSISVISGRDYYADSVKGRFTISRDNSKNTLYLQMNSLRAEDTAVYYCTRSHAFDVWGQGTMVTVSS VL: EIVLTQSPATLSVSPGERATLSCRASQSVYSALAWYQQKPGQAPRLLIYGASTRATGIPARFSGSGSGTEFTLTISSLQSEDFAVYYCQQYHKWPLSFGGGTKVEIK |
